The source of these data is patent US20170137473A1, “FLUOROGEN ACTIVATING AND SHIFTING TAG (FAST)” (PARIS SCIENCES ET LETTRE - QUARTIER LATIN, priority 2014, published 2017).

Series [1] is described as follows: Acid-base titration and absorption/emission of free fluorogen in aqueous solution. It is filed as physicochemical. The procedure:
(§1) pH measurements were performed on a Standard pH meter PHM210 Radiometer Analytical (calibrated with aqueous buffers at pH 4 and 7 or 10) with a Crison 5208 Electrode (Barcelona, Spain). UV/Vis absorption spectra were recorded in 1 cm×1 cm quartz cuvettes (Hellma) on a diode array UV/Vis spectrophotometer (Evolution array, Thermo Scientific). Corrected fluorescence spectra upon one-photon excitation were recorded with a Photon Technology International QuantaMaster QM-1 spectrofluorimeter (PTI, Monmouth Junction, NJ) equipped with a Peltier cell holder (TLC50, Quantum Northwest, Shoreline, Wash.). The overall emission quantum yields after one-photon excitation φ were calculated from the relation: […]
(§2) where the subscript ref stands for standard samples. A(λexc) is the absorbance at the excitation wavelength λexc, D is the integrated emission spectrum, and n is the refractive index for the solvent. The uncertainty for the experimental value of φ was estimated to be ±20%. The standard fluorophore for the quantum yields measurements was Fluorescein in sodium hydroxide 0.1 M with φref=0.92. The titration experiments used for the determination of the thermodynamic constants were performed on a SpectraMax®M5e (Molecular Devices) plate-reader. The on- and off-rate constants were determined by stopped-flow experiments using a RX2000 rapid kinetic stopped flow accessory (Applied Photophysics, Leatherhead, UK). The circular dichroism spectra were recorded on a J-815 circular dichroism spectropolarimeter (Jasco). The photobleaching experiments were performed on a the Photon Technology International QuantaMaster QM-1 spectrofluorimeter (PTI, Monmouth Junction, NJ) equipped with a Peltier cell holder (TLC50, Quantum Northwest, Shoreline, Wash.).
The stability of the synthesized compounds was evaluated in aqueous solutions at neutral pH. Unstable and/or non-soluble compounds were not further studied. The photochemical and acido-basic properties of the remaining compounds were thus analyzed. Acid-base titrations were performed in aqueous solution by recording absorption and emission spectra as a function of pH.
The protonated phenol state of HBR was indeed shown to strongly absorb violet light (maximal absorption wavelength 397 nm), while the phenolate state strongly absorbs blue light (maximal absorption wavelength 449 nm) (FIG. 2). This red-shift in absorption upon ionization can be explained by the stronger electronic donation of the negatively charged phenolate. The possible fluorescence increase of HBR was evaluated by restricting the motion thereof in monitoring the influence of medium viscosity on HBR fluorescence emission. With a pKA of 8.4±0.1, HBR is mainly protonated at physiological pH, which enabled to forecast it could undergo a specific red shift upon binding-induced deprotonation within a tailored protein cavity. In aqueous solution, both acidic and basic states of HBR are weakly fluorescent (FIG. 3), emitting respectively at 470 and 545 nm with 0.02% and 0.3% fluorescence quantum yields.

For series [2], the system named is HeLa cells. The series is described as follows: LIVE/DEAD viability assay (calceinAM, EthD1) of HeLa cells. It is filed as cell-based. To be noted: incubated 5 h at 5, 10 and 20 μM; concentrations used for imaging. As to the method: Cell viability was tested by using calceinAM and EthD1 (LIVE/DEAD® viability/cytotoxicity assay kit). CalceinAM is a cell-permeant profluorophore cleaved by intracellular esterases releasing the green fluorescent polyanionic calcein in live cells. EthD1 (Ethidium homodimer 1) is a non cell-permeant nucleic acid red fluorescent stain that enters only cells with damaged membranes and undergoes a fluorescence enhancement upon binding to nucleic acids, thereby producing a bright red fluorescence in dead cells. Control experiments with HeLa cells non-incubated with dye (top left, live control) or incubated for 1 h with 1% hydrogen peroxyde (top right, dead control) are shown. Cell fluorescence was evaluated by confocal microscopy.

Series [3] deals with wild-type bacteria, yeast and mammalian cells. Nature of the series: Fluorescence background of fluorogen in wild-type cells (flow cytometry, confocal). Format: cell-based. As to the method:
(§3) Flow cytometry analysis was performed on an Accuri C6 (BD Biosciences). Confocal micrographs were acquired on a Zeiss LSM 710 Laser Scanning Microscope equipped with a Plan Apochromat 63×/1.4 NA oil immersion objective. ZEN software was used to collect the data. Images were analyzed with Image J. Spinning-disk confocal micrographs were acquired on a Nikon Eclipse Ti microscope equipped with a 4×/0.15 N.A objective and a coolSnap HQ2/CDDcamera (Princeton Instrument). Metamorph premier 7.6 software (Molecular Devices) was used to collect the data.
(§4) Labeling of Y-FAST with HBR and HMBR in cells was then analyzed by flow cytometry in three different expression systems: yeast, E. coli and mammalian cells (HeLa cells). The fluorescence was compared to wild-type cells or cells expressing wild-type PYP. […] The performance and selectivity of Y-FAST labeling in mammalian cells, yeast and bacteria was furthermore confirmed by confocal microscopy (FIG. 14d and FIGS. 15 c to f and FIG. 16).
A general note: In flow cytometry, cells or beads pass a laser one at a time.

In another series the target is T1, wild-type PYP (Halorhodospira halophila, UniProt P16113, C69G).
T1 construct: fusion partner differs by host: Aga2p (yeast surface display, pAG14); His-tag-ENLYFQG (E. coli, pET28a); expressed in transfected cells
T1 sequence (P16113 whole entry C69G, the tested form may be a part): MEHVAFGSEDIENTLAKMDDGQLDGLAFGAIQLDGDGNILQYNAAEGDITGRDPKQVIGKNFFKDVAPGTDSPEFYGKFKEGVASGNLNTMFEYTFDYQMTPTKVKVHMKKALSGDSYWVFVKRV
The series is described as follows: Fluorogen labeling of cells expressing wild-type PYP. It is filed as cell-based. As to the method: as §3, §4

The conditions of series [4]: known in the art; cited from earlier work.
For series [5], the system named is HeLa cells. Nature of the series: Brightness and photostability of fluorescent proteins expressed in mammalian (HeLa) cells. It is filed as cell-based. The procedure: FIG. 18 is a set of graphs and images showing Y-FAST brightness and photo-resistance in mammalian cells. […] (a) Confocal micrographs of representative cells (Ex/Em 488/493-797 nm; scale bars 10 μm). Side-by-side images were recorded using the same settings for direct comparison of the fluorescence intensities. (b) Quantification of the fluorescence brightness of the different proteins (n=15-30 cells).
UnaG upon long-term observation with high power 488 nm laser excitation (light power 90 kW·cm-2, pixel dwell 1.58 μs). Plots show the fluorescence intensity as a function of the number of confocal microscope scans.
HEK293 and HeLa cells were cultured in DMEM supplemented with phenol red, Glutamax I, 10% fetal calf serum and 1% penicillin-streptomycin at 37° C. within a 5% CO2 atmosphere. For microscopy imaging, cells were seeded in μDish IBIDI (Biovalley) coated with poly-L-lysine. Cells were transiently transfected using Genejuice (Merck) according to the manufacturer's protocol.
as §3

A short description of series [6]: Circular dichroism stability of Y-FAST versus temperature. Format: physicochemical. To be noted: 25-45° C. range.
From the text: Note that we verified by circular dichroism, that Y-FAST was stable in the considered temperature range in order to ascertain that our two-state model was valid for the subsequent analyses.
as §2

Series [7] in a line: Absorption and emission properties of HBR-binding PYP variants in presence of HBR. It is filed as physicochemical. The note with it: variant with HBR; for λabs / λem: PBS pH 7.4; for Fluorescence quantum yield: fraction. As to the method:
as §1, §2
The photophysical properties of the engineered fluorescent proteins were more precisely characterized. […] This 70 nm red-shift in absorption was in accordance with HBR being bound within the PYP-variant cavity in its deprotonated state. This red-shift in absorption upon binding was also accompanied with a large fluorescence increase at 540 nm (FIG. 10 and Table 2 below).

Setting [8] is: glycerol content increased from 0 to 40% (v/v).

As usually defined, the pKa is the pH at which an ionisable group is half protonated. Higher therefore signals a group that holds its proton tightly. On to `O=C1NC(=S)S/C1=C\c1ccc(O)cc1` [HBR, (Z)-5-(4-hydroxybenzylidene)-2-thioxo-1,3-thiazolidin-4-one], for which, in series [1] (aqueous solution), the pKa came to 8.4 ± 0.1. In series [1] (free in aqueous solution), the “emission wavelength, acidic state” value came out at 470 nm; the “emission wavelength, basic state” value is recorded as 545 nm; the “fluorescence quantum yield, acidic state” value is listed as 0.02%; the “fluorescence quantum yield, basic state” value came to 0.3%. Also, in series [1] (free in aqueous solution), the “maximal absorption wavelength, phenolate state” value turned out to be 449 nm and the “maximal absorption wavelength, protonated phenol state” value is 397 nm. The maximal absorption wavelength in series [1] (free, PBS pH 7.4) is listed as 397 nm. Besides, in series [1] (setting [8]), the “increase of the fluorescence quantum yield, acidic state” value is reported as “Six” and the “increase of the fluorescence quantum yield, basic state” value is “three-fold”. For the same molecule, in the series with HeLa cells [2], the “toxicity for HeLa cells” value was “non-toxic”. Also, the “fluorescence background in wild-type cells” value in series [3] is recorded as “no or negligible fluorescence background”. For the same molecule, on wild-type PYP, the “binding to wild-type PYP” value is given as “do not bind”.
For the molecule “parahydroxybenzylidene-5-imidazolinone [p-HBI]”, in series [4], the “absorption wavelength, deprotonated form” value is recorded as 475 nm and the “absorption wavelength, protonated form” value was 397 nm.

B1: Clone 3: best fluorescent HBR-binding PYP variant, SEQ ID NO: 3, residues 94-101 WMIPTSRG (protein)
chain: MEHVAFGSEDIENTLAKMDDGQLDGLAFGAIQLDGDGNILQYNAAEGDITGRDPKQVIGKNFFKDVAPGTDSPEFYGKFKEGVASGNLNTMFEWMIPTSRGPTKVKVHMKKALSGDSYWVFVKRV
modifications: Functional derivative of SEQ ID NO: 48 - Clone 3
For the molecule B1, in the series on HeLa cells [5] (488 nm excitation), the photostability in cells result is “more stable than UnaG and Venus, but less than EGFP”. Further, the “fluorescence in mammalian cells” value in the series with HeLa cells [5] (blue excitation at 488 nm, Y-FAST labeled with 5 μM HMBR) is “comparable with that of the green fluorescent proteins EGFP and UnaG, and two fold lower than that of the yellow fluorescent Venus”. The photostability in cells result in the series on HeLa cells [5] (excitation at 514 nm) is listed as “almost did not photobleach”. Further, the “fluorescence in mammalian cells” value with HeLa cells [5] (green excitation at 514 nm) was “five-fold less than Venus”. In series [6], the “stability by circular dichroism” value is recorded as “stable”. Also, in series [7], the Extinction coefficient is given as 44,000 M^−1cm^−1, the “Relative brightness (% of EGFP)” value is recorded as 12 % of EGFP, the brightness is 4,000 and the λabs worked out at 467 nm. Moreover, in series [7], the λem is listed as 542 nm and the Fluorescence quantum yield stood at 0.09.

B2: Clone 6: fluorescent HBR-binding PYP variant, SEQ ID NO: 6, residues 94-101 WLIPTRNA (protein)
chain: MEHVAFGSEDIENTLAKMDDGQLDGLAFGAIQLDGDGNILQYNAAEGDITGRDPKQVIGKNFFKDVAPGTDSPEFYGKFKEGVASGNLNTMFEWLIPTRNAPTKVKVHMKKALSGDSYWVFVKRV
modifications: Functional derivative of SEQ ID NO: 48 - Clone 6
As to B2, in series [7], the Extinction coefficient is listed as 43,000 M^−1cm^−1, the “Relative brightness (% of EGFP)” value is on record as 9.0 % of EGFP, the brightness is recorded as 3,000 and the λabs was 467 nm. Besides, in series [7], the λem is listed as 539 nm and the Fluorescence quantum yield came out at 0.07.

B3: Clone 4: fluorescent HBR-binding PYP variant, SEQ ID NO: 4, residues 94-101 WDIPTNPE (protein)
chain: MEHVAFGSEDIENTLAKMDDGQLDGLAFGAIQLDGDGNILQYNAAEGDITGRDPKQVIGKNFFKDVAPGTDSPEFYGKFKEGVASGNLNTMFEWDIPTNPEPTKVKVHMKKALSGDSYWVFVKRV
modifications: Functional derivative of SEQ ID NO: 48 - Clone 4
As for B3, in series [7], the Extinction coefficient is 41,000 M^−1cm^−1, the “Relative brightness (% of EGFP)” value is listed as 7.4 % of EGFP, the brightness is 2,500 and the λabs is recorded as 468 nm. For the same molecule, in series [7], the λem was 541 nm and the Fluorescence quantum yield was 0.06.

B4: Clone 5: fluorescent HBR-binding PYP variant, SEQ ID NO: 5, residues 94-101 WRIPTECA (protein)
chain: MEHVAFGSEDIENTLAKMDDGQLDGLAFGAIQLDGDGNILQYNAAEGDITGRDPKQVIGKNFFKDVAPGTDSPEFYGKFKEGVASGNLNTMFEWRIPTECAPTKVKVHMKKALSGDSYWVFVKRV
modifications: Functional derivative of SEQ ID NO: 48 - Clone 5
On to B4, for which, in series [7], the Extinction coefficient is 47,000 M^−1cm^−1, the “Relative brightness (% of EGFP)” value is 8.3 % of EGFP, the brightness is reported as 2,800 and the λabs is given as 468 nm. Also, in series [7], the λem was determined as 542 nm and the Fluorescence quantum yield came to 0.06.

B5: Clone 2: fluorescent HBR-binding PYP variant, SEQ ID NO: 2, residues 94-101 WLIPTLPQ (protein)
chain: MEHVAFGSEDIENTLAKMDDGQLDGLAFGAIQLDGDGNILQYNAAEGDITGRDPKQVIGKNFFKDVAPGTDSPEFYGKFKEGVASGNLNTMFEWLIPTLPQPTKVKVHMKKALSGDSYWVFVKRV
modifications: Functional derivative of SEQ ID NO: 48 - Clone 2
Consider B5, for which, in series [7], the Extinction coefficient is on record as 46,000 M^−1cm^−1, the “Relative brightness (% of EGFP)” value was 8.3 % of EGFP, the brightness was 2,800 and the λabs worked out at 466 nm. Further, in series [7], the λem amounted to 540 nm and the Fluorescence quantum yield was determined as 0.06.
